Source: US20180371492A1 (WAYNE STATE UNIVERSITY, published 2018)

Biological target: T1, purified androgen receptor (AR) (human, UniProt P10275 1-920, limits assumed)
T1 construct: also called purified AR
T1 sequence: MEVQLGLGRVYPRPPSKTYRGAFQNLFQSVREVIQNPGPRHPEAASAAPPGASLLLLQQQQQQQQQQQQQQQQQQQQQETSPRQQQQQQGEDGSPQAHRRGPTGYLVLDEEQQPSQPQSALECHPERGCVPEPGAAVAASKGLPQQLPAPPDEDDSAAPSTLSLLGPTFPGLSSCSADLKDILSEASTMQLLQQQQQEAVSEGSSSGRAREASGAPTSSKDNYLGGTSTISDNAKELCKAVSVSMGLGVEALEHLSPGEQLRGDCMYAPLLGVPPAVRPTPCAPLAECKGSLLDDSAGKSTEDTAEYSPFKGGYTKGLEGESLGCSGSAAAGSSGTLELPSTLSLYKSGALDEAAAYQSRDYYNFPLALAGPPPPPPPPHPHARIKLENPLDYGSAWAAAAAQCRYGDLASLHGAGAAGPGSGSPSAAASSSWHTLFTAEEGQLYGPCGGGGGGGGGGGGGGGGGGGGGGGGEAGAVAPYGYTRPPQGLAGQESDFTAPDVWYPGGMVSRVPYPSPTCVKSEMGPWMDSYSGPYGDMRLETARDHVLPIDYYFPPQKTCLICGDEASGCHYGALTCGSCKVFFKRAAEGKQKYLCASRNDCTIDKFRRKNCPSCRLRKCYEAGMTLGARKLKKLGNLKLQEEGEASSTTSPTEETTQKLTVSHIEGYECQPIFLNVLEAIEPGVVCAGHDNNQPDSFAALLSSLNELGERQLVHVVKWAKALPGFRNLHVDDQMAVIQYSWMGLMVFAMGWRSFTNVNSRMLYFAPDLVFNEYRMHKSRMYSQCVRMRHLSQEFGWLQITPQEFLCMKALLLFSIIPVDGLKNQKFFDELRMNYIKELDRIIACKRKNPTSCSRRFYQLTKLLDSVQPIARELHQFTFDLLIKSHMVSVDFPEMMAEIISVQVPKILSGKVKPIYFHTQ
Assay: SPR, purified proteins

Kd: 19 nM
B1: ELK1 (ETS transcription factor (ELK1), transcript variant 1) (other)
chain: MDPSVTLWQFLLQLLREQGNGHIISWTSRDGGEFKLVDAEEVARLWGLRKNKTNMNYDKLSRALRYYYDKNIIRKVSGQKFVYKFVSYPEVAGCSTEDCPPQPEVSVTSTMPNVAPAAIHAAPGDTVSGKPGTPKGAGMAGPGGLARSSRNEYMRSGLYSTFTIQSLQPQPPPHPRPAVVLPNAAPAGAAAPPSGSRSTSPSPLEACLEAEEAGLPLQVILTPPEAPNLKSEELNVEPGLGRALPPEVKVEGPKEELEVAGERGFVPETTKAEPEVPPQEGVPARLPAVVMDTAGQAGGHAASSPEISQPQKGRKPRDLELPLSPSLLGGPGPERTPGSGSGSGLQAPGPALTPSLLPTHTLTPVLLTPSSLPPSIHFWSTLSPIAPRSPAKLSFQFPSSGSAQVHIPSISVDGLSTPVVLSPGPQKP
notes: also called purified ELK1; ELK1 polypeptide
